In publication PMC11074131, “ASS1 inhibits triple-negative breast cancer by regulating PHGDH stability and de novo serine synthesis” (Cell Death & Disease, 2024):
One block for each binder: values may come before it.

B1: GST-ASS1 (natural protein, human, UniProt P00966 1-412, looked up)
chain: MSSKGSVVLAYSGGLDTSCILVWLKEQGYDVIAYLANIGQKEDFEEARKKALKLGAKKVFIEDVSREFVEEFIWPAIQSSALYEDRYLLGTSLARPCIARKQVEIAQREGAKYVSHGATGKGNDQVRFELSCYSLAPQIKVIAPWRMPEFYNRFKGRNDLMEYAKQHGIPIPVTPKNPWSMDENLMHISYEAGILENPKNQAPPGLYTKTQDPAKAPNTPDILEIEFKKGVPVKVTNVKDGTTHQTSLELFMYLNEVAGKHGVGRIDIVENRFIGMKSRGIYETPAGTILYHAHLDIEAFTMDREVRKIKQGLGLKFAELVYTGFWHSPECEFVRHCIAKSQERVEGKVQVSVLKGQVYILGRESPLSLYNEELVSMNVQGDYEPTDATGFININSLRLKEYHRLQSKVTAK
notes: also called recombinant GST-ASS1; source: E. coli BL21 DE3, purified

Legend:
Settings in all cases: both partners purified
[1] = biological target: T1, His-PHGDH (UniProt O43175 1-533); assay: pull-down; purified GST-ASS1 immobilised on MagneGST Glutathione Particles; purified His-PHGDH or its truncated forms added overnight at 4 °C; washed with PBST; western blot; GST as negative control
T1 construct: also called PHGDH-F; full-length PHGDH; source: E. coli BL21 DE3, purified
T1 sequence (looked up): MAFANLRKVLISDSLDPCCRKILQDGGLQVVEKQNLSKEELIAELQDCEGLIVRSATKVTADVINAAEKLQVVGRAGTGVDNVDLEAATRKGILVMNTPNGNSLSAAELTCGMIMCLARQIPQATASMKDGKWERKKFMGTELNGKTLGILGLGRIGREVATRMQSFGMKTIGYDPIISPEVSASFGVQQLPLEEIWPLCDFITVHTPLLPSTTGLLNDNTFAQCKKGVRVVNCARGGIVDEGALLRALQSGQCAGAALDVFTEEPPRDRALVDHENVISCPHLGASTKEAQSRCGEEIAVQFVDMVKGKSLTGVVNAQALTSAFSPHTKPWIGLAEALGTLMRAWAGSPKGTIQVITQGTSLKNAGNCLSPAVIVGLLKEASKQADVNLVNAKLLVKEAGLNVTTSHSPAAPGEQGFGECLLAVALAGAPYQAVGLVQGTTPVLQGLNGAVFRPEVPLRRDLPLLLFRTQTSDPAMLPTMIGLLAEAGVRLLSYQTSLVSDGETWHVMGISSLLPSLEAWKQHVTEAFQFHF

[2] = biological target: T2, GST-PHGDH (UniProt O43175 1-533); assay: pull-down; purified GST-PHGDH immobilised on MagneGST Glutathione Particles; purified His-ASS1 added overnight at 4 °C; washed with PBST; western blot; GST as negative control
T2 construct: also called recombinant GST-PHGDH; source: E. coli BL21 DE3, purified
T2 sequence (looked up): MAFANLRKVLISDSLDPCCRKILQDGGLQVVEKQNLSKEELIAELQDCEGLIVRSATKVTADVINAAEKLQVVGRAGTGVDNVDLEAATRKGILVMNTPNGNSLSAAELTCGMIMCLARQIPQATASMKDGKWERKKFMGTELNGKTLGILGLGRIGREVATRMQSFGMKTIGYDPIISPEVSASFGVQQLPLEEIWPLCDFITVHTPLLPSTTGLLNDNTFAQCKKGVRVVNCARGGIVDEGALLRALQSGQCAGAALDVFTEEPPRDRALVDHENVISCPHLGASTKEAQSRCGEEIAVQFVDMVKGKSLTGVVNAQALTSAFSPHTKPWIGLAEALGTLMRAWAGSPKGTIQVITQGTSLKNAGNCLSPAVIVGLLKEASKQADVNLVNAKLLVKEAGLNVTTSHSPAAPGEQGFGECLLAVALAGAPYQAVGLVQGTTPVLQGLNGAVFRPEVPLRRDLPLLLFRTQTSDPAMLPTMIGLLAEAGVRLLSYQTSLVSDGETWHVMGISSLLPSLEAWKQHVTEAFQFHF

[3] = biological target: B1; assay: pull-down; purified GST-ASS1 immobilised on MagneGST Glutathione Particles; purified His-PHGDH or its truncated forms added overnight at 4 °C; washed with PBST; western blot; GST as negative control

Binder: B1
binding result [1]: binds

binding result [2]: binds
B2: His-ASS1 (natural protein, human, UniProt P00966 1-412, looked up)
chain: MSSKGSVVLAYSGGLDTSCILVWLKEQGYDVIAYLANIGQKEDFEEARKKALKLGAKKVFIEDVSREFVEEFIWPAIQSSALYEDRYLLGTSLARPCIARKQVEIAQREGAKYVSHGATGKGNDQVRFELSCYSLAPQIKVIAPWRMPEFYNRFKGRNDLMEYAKQHGIPIPVTPKNPWSMDENLMHISYEAGILENPKNQAPPGLYTKTQDPAKAPNTPDILEIEFKKGVPVKVTNVKDGTTHQTSLELFMYLNEVAGKHGVGRIDIVENRFIGMKSRGIYETPAGTILYHAHLDIEAFTMDREVRKIKQGLGLKFAELVYTGFWHSPECEFVRHCIAKSQERVEGKVQVSVLKGQVYILGRESPLSLYNEELVSMNVQGDYEPTDATGFININSLRLKEYHRLQSKVTAK
notes: also called recombinant His-ASS1; source: E. coli BL21 DE3, purified

binding result [3]: binds
B3: PHGDH N-314 (catalytic domain) (domain or fragment, UniProt O43175 1-314, looked up)
chain: MAFANLRKVLISDSLDPCCRKILQDGGLQVVEKQNLSKEELIAELQDCEGLIVRSATKVTADVINAAEKLQVVGRAGTGVDNVDLEAATRKGILVMNTPNGNSLSAAELTCGMIMCLARQIPQATASMKDGKWERKKFMGTELNGKTLGILGLGRIGREVATRMQSFGMKTIGYDPIISPEVSASFGVQQLPLEEIWPLCDFITVHTPLLPSTTGLLNDNTFAQCKKGVRVVNCARGGIVDEGALLRALQSGQCAGAALDVFTEEPPRDRALVDHENVISCPHLGASTKEAQSRCGEEIAVQFVDMVKGKSLTG
notes: also called catalytic domain of PHGDH; source: E. coli BL21 DE3, purified
